In paper PMC3799427 (Nucleic Acids Research, 2013):
Changes are numbered by the printed parent chain. Names and notes keep the numbering of the source.

B1: UmuD, wild type (natural protein, Escherichia coli, UniProt P0AG11 1-139, looked up)
chain: MLFIKPADLREIVTFPLFSDLVQCGFPSPAADYVEQRIDLNQLLIQHPSATYFVKASGDSMIDGGISDGDLLIVDSAITASHGDIVIAAVDGEFTVKKLQLRPTVQLIPMNSAYSPITISSEDTLDVFGVVIHVVKAMR
B2: UmuD D91K (natural protein, Escherichia coli, UniProt P0AG11 1-139, looked up)
chain: B1 chain with D91K
B3: UmuD D91K-G92K (natural protein, Escherichia coli, UniProt P0AG11 1-139, looked up)
chain: B1 chain with D91K, G92K
B4: UmuD G92K (natural protein, Escherichia coli, UniProt P0AG11 1-139, looked up)
chain: B1 chain with G92K

What was measured:
[1] = biological target: T1, DNA polymerase III α subunit (Escherichia coli, UniProt P10443 1-1160); assay: single molecule DNA stretching
T1 sequence (P10443 whole entry): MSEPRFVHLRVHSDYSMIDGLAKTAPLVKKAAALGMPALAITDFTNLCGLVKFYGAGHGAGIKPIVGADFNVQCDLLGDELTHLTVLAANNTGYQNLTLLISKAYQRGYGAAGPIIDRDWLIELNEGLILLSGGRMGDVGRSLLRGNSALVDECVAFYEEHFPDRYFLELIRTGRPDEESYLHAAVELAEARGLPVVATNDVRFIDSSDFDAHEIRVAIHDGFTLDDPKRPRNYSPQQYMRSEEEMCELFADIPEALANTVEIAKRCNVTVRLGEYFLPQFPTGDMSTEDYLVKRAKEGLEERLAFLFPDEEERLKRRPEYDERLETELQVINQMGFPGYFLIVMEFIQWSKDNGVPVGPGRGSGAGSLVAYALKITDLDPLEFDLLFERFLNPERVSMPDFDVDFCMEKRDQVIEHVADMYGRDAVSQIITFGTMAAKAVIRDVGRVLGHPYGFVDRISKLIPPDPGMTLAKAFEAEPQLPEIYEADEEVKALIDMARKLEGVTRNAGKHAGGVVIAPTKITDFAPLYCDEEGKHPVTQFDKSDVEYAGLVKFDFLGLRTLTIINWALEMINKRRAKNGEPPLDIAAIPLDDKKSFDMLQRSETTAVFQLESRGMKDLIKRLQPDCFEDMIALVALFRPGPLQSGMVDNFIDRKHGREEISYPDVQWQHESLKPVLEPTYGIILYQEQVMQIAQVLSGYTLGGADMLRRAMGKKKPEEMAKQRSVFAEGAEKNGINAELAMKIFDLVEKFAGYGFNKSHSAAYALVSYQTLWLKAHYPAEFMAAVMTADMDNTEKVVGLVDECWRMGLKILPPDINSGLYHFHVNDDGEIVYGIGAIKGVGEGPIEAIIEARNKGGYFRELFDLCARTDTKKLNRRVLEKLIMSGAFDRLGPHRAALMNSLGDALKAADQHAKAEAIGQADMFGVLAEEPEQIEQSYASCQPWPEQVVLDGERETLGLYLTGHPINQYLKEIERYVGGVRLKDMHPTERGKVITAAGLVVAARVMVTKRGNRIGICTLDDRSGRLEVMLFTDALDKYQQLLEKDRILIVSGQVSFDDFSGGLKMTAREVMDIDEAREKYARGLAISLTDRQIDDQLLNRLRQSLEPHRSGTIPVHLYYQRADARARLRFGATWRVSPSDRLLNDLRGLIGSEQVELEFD

[2] = biological target: T1, DNA polymerase III α subunit; assay: other fluorescence titration

Binder | Kd [1] [µM] | Kd [2] [µM]
B1 | 0.34 ± 0.103 | –
B2 | – | 18.1
B3 | – | 32.5
B4 | – | 1.3
